Laboratory results reported in US20240010722A1 (published 2024).

T1: human MAdCAM (human, UniProt Q13477 19-317, limits assumed)
T1 construct: also called huMAdCAM; human MAdCAM-1
T1 sequence (looked up): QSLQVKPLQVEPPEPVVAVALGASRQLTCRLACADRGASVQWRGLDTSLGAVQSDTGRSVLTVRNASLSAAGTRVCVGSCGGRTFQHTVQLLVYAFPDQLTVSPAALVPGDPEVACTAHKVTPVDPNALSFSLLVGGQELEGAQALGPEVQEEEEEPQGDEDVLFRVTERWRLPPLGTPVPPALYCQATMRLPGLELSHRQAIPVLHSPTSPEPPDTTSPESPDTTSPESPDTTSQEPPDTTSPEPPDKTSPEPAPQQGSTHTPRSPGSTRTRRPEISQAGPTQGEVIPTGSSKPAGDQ


target: T1, human MAdCAM; experiment: BLI (Octet), binder on anti-human Fc tips

Row | binding result | Kd [nM] | koff [s⁻¹] | kon [M⁻¹ s⁻¹] | Binder
1 | no binding (tested: 150 nM) |  |  |  | MIAB141 (antibody, V domains shown, tested with human Fc) VH: EVQLLESGGGLVQPGGSLRLSCAASGFTFSDFWMHWVRQAPGKGLEWISYISGDSGYTNYADSVKGRFTISRDNSKNTLYLQMNSLRAEDTAVYYCARDRPYYYYMDVWGKGTTVTVSS VL: DIQMTQSPSSLSASVGDRVTITCRASQSISSYLNWYQQKPGKAPKLLIYAASSLQSGVPSRFSGSGSGTDFTLTISSLQPEDFATYYCQQYKSYPVTFGQGTKVEIK
2 |  | 218 | 0.0851 | 391000 | MIAB177 (antibody, V domains shown, tested with human Fc; also called MIAB177-001) VH: EVQLLESGGGLVQPGGSLRLSCAASGFTFSDFWMHWVRQAPGKGLEWVSAISGSGGSTYYADSVKGRFTISRDNSKNTLYLQMNSLRAEDTAVYYCARDRPYYYYMDVWGKGTTVTVSS VL: DIQMTQSPSSLSASVGDRVTITCRASQSVSRSLAWYQQKPGKAPKLLIYAASSLQSGVPSRFSGSGSGTDFTLTISSLQPEDFATYYCQQYKSYPVTFGQGTKVEIK
3 |  | 21.8 | 0.00969 | 445000 | MIAB174 (antibody, V domains shown, tested with human Fc; also called MIAB174-001) VH: EVQLLESGGGLVQPGGSLRLSCAASGFTFSDYWMHWVRQAPGKGLEWISYISGDSGYTNYADSVKGRFTISRDNSKNTLYLQMNSLRAEDTAVYYCARDRPYYYYMDVWGKGTTVTVSS VL: DIQMTQSPSSLSASVGDRVTITCRASQSVSRSLAWYQQKPGKAPKLLIYAASSLQSGVPSRFSGSGSGTDFTLTISSLQPEDFATYYCQQYKSYPVTFGQGTKVEIK
4 |  | 22.6 | 0.0106 | 471000 | MIAB175 (antibody, V domains shown, tested with human Fc; also called MIAB175-001) VH: EVQLLESGGGLVQPGGSLRLSCAASGFTFSSYWMHWVRQAPGKGLEWISYISGDSGYTNYADSVKGRFTISRDNSKNTLYLQMNSLRAEDTAVYYCARDRPYYYYMDVWGKGTTVTVSS VL: DIQMTQSPSSLSASVGDRVTITCRASQSVSRSLAWYQQKPGKAPKLLIYAASSLQSGVPSRFSGSGSGTDFTLTISSLQPEDFATYYCQQYKSYPVTFGQGTKVEIK

target: T1, human MAdCAM; experiment: BLI (Octet), binder on AHC tips
Procedure, shortened: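 Kinetic rates and the dissociation constant come from a global one-to-one fit, performed in the Octet data analysis software, of binding measured on an Octet96 RED with anti-human IgG Fc biosensors. Test article at 10 μg/mL in assay buffer was captured on the tips for 240 s. MAdCAM-1, serially diluted over seven points from 200 nM down to 3.13 nM, then associated for 120 s before 120 s of dissociation in assay buffer.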

Row | Binder | Kd [nM] | koff [s⁻¹] | kon [M⁻¹ s⁻¹] | binding result
5 | PMAB39 (bispecific antibody, human IgG1, kappa) heavy: EVQLLESGGGLVQPGGSLRLSCAASGFTFSNSDMSWVRQAPGKGLEWVSGITISGGSTYYADSVKGRFTISRDNSKNTLYLQMNSLRAEDTAVYYCARGRGGSGWLDYWGQGTLVTVSSASTKGPSVFPLAPSSKSTSGGTAALGCLVKDYFPEPVTVSWNSGALTSGVHTFPAVLQSSGLYSLSSVVTVPSSSLGTQTYICNVNHKPSNTKVDKKVEPKSCDKTHTCPPCPAPEAAGAPSVFLFPPKPKDTLMISRTPEVTCVVVDVSHEDPEVKFNWYVDGVEVHNAKTKPREEQYNSTYRVVSVLTVLHQDWLNGKEYKCKVSNKALPAPIEKTISKAKGQPREPQVYTLPPSREEMTKNQVSLTCLVKGFYPSDIAVEWESNGQPENNYKTTPPVLDSDGSFFLYSKLTVDKSRWQQGNVFSCSVMHEALHNHYTQKSLSLSPGGGGGSGGGGSGGGGSEVQLLESGGGLVQPGGSLRLSCAASGFTFSDFWMHWVRQAPGKGLEWISYISGDSGYTNYADSVKGRFTISRDNSKNTLYLQMNSLRAEDTAVYYCARDRPYYYYMDVWGKGTTVTVSSGGGGSGGGGSGGGGSGGGGSDIQMTQSPSSLSASVGDRVTITCRASQSVSRSLNWYQQKPGKAPKLLIYAASSLQSGVPSRFSGSGSGTDFTLTISSLQPEDFATYYCQQYKSYPVTFGQGTKVEIK light: not shown |  |  |  | no binding (tested: 200 nM (top of the dilution series))
6 | PMAB46 (bispecific antibody, human IgG1, kappa) heavy: EVQLLESGGGLVQPGGSLRLSCAASGFTFSNSDMSWVRQAPGKGLEWVSGITISGGSTYYADSVKGRFTISRDNSKNTLYLQMNSLRAEDTAVYYCARGRGGSGWLDYWGQGTLVTVSSASTKGPSVFPLAPSSKSTSGGTAALGCLVKDYFPEPVTVSWNSGALTSGVHTFPAVLQSSGLYSLSSVVTVPSSSLGTQTYICNVNHKPSNTKVDKKVEPKSCDKTHTCPPCPAPEAAGAPSVFLFPPKPKDTLMISRTPEVTCVVVDVSHEDPEVKFNWYVDGVEVHNAKTKPREEQYNSTYRVVSVLTVLHQDWLNGKEYKCKVSNKALPAPIEKTISKAKGQPREPQVYTLPPSREEMTKNQVSLTCLVKGFYPSDIAVEWESNGQPENNYKTTPPVLDSDGSFFLYSKLTVDKSRWQQGNVFSCSVMHEALHNHYTQKSLSLSPGGGGGSGGGGSGGGGSEVQLLESGGGLVQPGGSLRLSCAASGFTFSDFWMHWVRQAPGKGLEWISYISGDSGYTNYADSVKGRFTISRDNSKNTLYLQMNSLRAEDTAVYYCARDRPYGYYMDVWGKGTTVTVSSGGGGSGGGGSGGGGSGGGGSDIQMTQSPSSLSASVGDRVTITCRASQSVSRSLAWYQQKPGKAPKLLIYAASSLQSGVPSRFSGSGSGTDFTLTISSLQPEDFATYYCQQYKSYPVTFGQGTKVEIK light: not shown | 37900 | 0.309 | 8160 | 
7 | PMAB43 (bispecific antibody, human IgG1, kappa) heavy: EVQLLESGGGLVQPGGSLRLSCAASGFTFSNSDMSWVRQAPGKGLEWVSGITISGGSTYYADSVKGRFTISRDNSKNTLYLQMNSLRAEDTAVYYCARGRGGSGWLDYWGQGTLVTVSSASTKGPSVFPLAPSSKSTSGGTAALGCLVKDYFPEPVTVSWNSGALTSGVHTFPAVLQSSGLYSLSSVVTVPSSSLGTQTYICNVNHKPSNTKVDKKVEPKSCDKTHTCPPCPAPEAAGAPSVFLFPPKPKDTLMISRTPEVTCVVVDVSHEDPEVKFNWYVDGVEVHNAKTKPREEQYNSTYRVVSVLTVLHQDWLNGKEYKCKVSNKALPAPIEKTISKAKGQPREPQVYTLPPSREEMTKNQVSLTCLVKGFYPSDIAVEWESNGQPENNYKTTPPVLDSDGSFFLYSKLTVDKSRWQQGNVFSCSVMHEALHNHYTQKSLSLSPGGGGGSGGGGSGGGGSEVQLLESGGGLVQPGGSLRLSCAASGFTFSDFWMHWVRQAPGKGLEWISYISGDSGYTNYADSVKGRFTISRDNSKNTLYLQMNSLRAEDTAVYYCARDRPYYYYMDVWGKGTTVTVSSGGGGSGGGGSGGGGSGGGGSDIQMTQSPSSLSASVGDRVTITCRASQSVSRSLAWYQQKPGKAPKLLIYAASSLQSGVPSRFSGSGSGTDFTLTISSLQPEDFATYYCQQYKSYPRTFGQGTKVEIK light: not shown |  |  |  | no binding (tested: 200 nM (top of the dilution series))

Second part, led by results:

Row | Kd [nM] | koff [s⁻¹] | kon [M⁻¹ s⁻¹] | Binder | binding result
8 | 219 | 0.072 | 329000 | PMAB47 (bispecific antibody, human IgG1, kappa) heavy: EVQLLESGGGLVQPGGSLRLSCAASGFTFSNSDMSWVRQAPGKGLEWVSGITISGGSTYYADSVKGRFTISRDNSKNTLYLQMNSLRAEDTAVYYCARGRGGSGWLDYWGQGTLVTVSSASTKGPSVFPLAPSSKSTSGGTAALGCLVKDYFPEPVTVSWNSGALTSGVHTFPAVLQSSGLYSLSSVVTVPSSSLGTQTYICNVNHKPSNTKVDKKVEPKSCDKTHTCPPCPAPEAAGAPSVFLFPPKPKDTLMISRTPEVTCVVVDVSHEDPEVKFNWYVDGVEVHNAKTKPREEQYNSTYRVVSVLTVLHQDWLNGKEYKCKVSNKALPAPIEKTISKAKGQPREPQVYTLPPSREEMTKNQVSLTCLVKGFYPSDIAVEWESNGQPENNYKTTPPVLDSDGSFFLYSKLTVDKSRWQQGNVFSCSVMHEALHNHYTQKSLSLSPGGGGGSGGGGSGGGGSEVQLLESGGGLVQPGGSLRLSCAASGFTFSDFWMHWVRQAPGKGLEWISYISGDSGYTNYADSVKGRFTISRDNSKNTLYLQMNSLRAEDTAVYYCARDRPYNYYMDVWGKGTTVTVSSGGGGSGGGGSGGGGSGGGGSDIQMTQSPSSLSASVGDRVTITCRASQSVSRSLAWYQQKPGKAPKLLIYAASSLQSGVPSRFSGSGSGTDFTLTISSLQPEDFATYYCQQYKSYPVTFGQGTKVEIK light: not shown | 
9 | 93.5 | 0.00952 | 115000 | PMAB51 (bispecific antibody, human IgG1, kappa) heavy: EVQLLESGGGLVQPGGSLRLSCAASGFTFSNSDMSWVRQAPGKGLEWVSGITISGGSTYYADSVKGRFTISRDNSKNTLYLQMNSLRAEDTAVYYCARGRGGSGWLDYWGQGTLVTVSSASTKGPSVFPLAPSSKSTSGGTAALGCLVKDYFPEPVTVSWNSGALTSGVHTFPAVLQSSGLYSLSSVVTVPSSSLGTQTYICNVNHKPSNTKVDKKVEPKSCDKTHTCPPCPAPEAAGAPSVFLFPPKPKDTLMISRTPEVTCVVVDVSHEDPEVKFNWYVDGVEVHNAKTKPREEQYNSTYRVVSVLTVLHQDWLNGKEYKCKVSNKALPAPIEKTISKAKGQPREPQVYTLPPSREEMTKNQVSLTCLVKGFYPSDIAVEWESNGQPENNYKTTPPVLDSDGSFFLYSKLTVDKSRWQQGNVFSCSVMHEALHNHYTQKSLSLSPGGGGGSGGGGSGGGGSEVQLLESGGGLVQPGGSLRLSCAASGFTFSDFWMHWVRQAPGKGLEWISYISGDSGYTNYADSVKGRFTISRDNSKNTLYLQMNSLRAEDTAVYYCARDRPYYYKMDVWGKGTTVTVSSGGGGSGGGGSGGGGSGGGGSDIQMTQSPSSLSASVGDRVTITCRASQSVSRSLAWYQQKPGKAPKLLIYAASSLQSGVPSRFSGSGSGTDFTLTISSLQPEDFATYYCQQYKSYPVTFGQGTKVEIK light: not shown | 
10 | 142 | 0.0125 | 87900 | PMAB49 (bispecific antibody, human IgG1, kappa) heavy: EVQLLESGGGLVQPGGSLRLSCAASGFTFSNSDMSWVRQAPGKGLEWVSGITISGGSTYYADSVKGRFTISRDNSKNTLYLQMNSLRAEDTAVYYCARGRGGSGWLDYWGQGTLVTVSSASTKGPSVFPLAPSSKSTSGGTAALGCLVKDYFPEPVTVSWNSGALTSGVHTFPAVLQSSGLYSLSSVVTVPSSSLGTQTYICNVNHKPSNTKVDKKVEPKSCDKTHTCPPCPAPEAAGAPSVFLFPPKPKDTLMISRTPEVTCVVVDVSHEDPEVKFNWYVDGVEVHNAKTKPREEQYNSTYRVVSVLTVLHQDWLNGKEYKCKVSNKALPAPIEKTISKAKGQPREPQVYTLPPSREEMTKNQVSLTCLVKGFYPSDIAVEWESNGQPENNYKTTPPVLDSDGSFFLYSKLTVDKSRWQQGNVFSCSVMHEALHNHYTQKSLSLSPGGGGGSGGGGSGGGGSEVQLLESGGGLVQPGGSLRLSCAASGFTFSDFWMHWVRQAPGKGLEWISYISGDSGYTNYADSVKGRFTISRDNSKNTLYLQMNSLRAEDTAVYYCARDRPYYYDMDVWGKGTTVTVSSGGGGSGGGGSGGGGSGGGGSDIQMTQSPSSLSASVGDRVTITCRASQSVSRSLAWYQQKPGKAPKLLIYAASSLQSGVPSRFSGSGSGTDFTLTISSLQPEDFATYYCQQYKSYPVTFGQGTKVEIK light: not shown | 
